This data set in a line: self-splicing fitness, log relative to wild type (ln ratio); higher = more splicing; Tetrahymena group I intron in knt gene, E. coli kanamycin selection, DiMSum; sequences stand for … in CUCUCU…GGAGGGAAAAGUUAUCAGGCAUGCACCUGGUAGCUAGUCUUUAAACCAAUAGAUUGCAUCGGUUUAAAAGGCAAGACCGUCAAAUUGCGGGAAAGGGGUCAACAGCCGUUCAGUACCAAGUCUCAGGGGAAACUUUGAGAUGGCCUUGCAAAGGGUAUGGUAAUAAGCUGACGGACAUGGUCCUAACCACGCAGCCAAGUCCUAAGUCAACAGAUCUUCUGUUGAUAUGGAUGCAGUUCACAGACUAAAUGUCGGUCGGGGAAGAUGUAUUCUUCUCAUAAGAUAUAGUCGGACCUCUCCUUAAUGGGAGCUAGCGGAUGAAGUGAUGCAACACUGGAGCCGCUGGGAACUAAUUUGUAUGCGAAAGUAUAUUGAUUAGUUUUGGAGUACUCGUGGUCG
Put shortly:
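Pooled colonies went to amplicon sequencing on an Illumina HiSeq 2500 after six replicate transformations. The plates were LB agar with 100 μg/mL carbenicillin, 50 μM IPTG and 0.2% rhamnose, with or without 25 μg/mL kanamycin, incubated overnight at 37°C or 30°C. The E. coli BL21(DE3) library had all eight P1ex-region intron nucleotides randomised, the intron placed in the knt kanamycin-resistance gene on pET-22b(+). DiMSum fitness is the error-weighted combination of replicate fold changes, kanamycin against none, normalised to wild type.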

Consider 38 sequences from the supplement of paper PMC7877785.

± gives the uncertainty stated by the source.

As to GAGGAGCAAUAUUACGAAUA, the “self-splicing fitness (ln)” value (30 °C) is -3.68 ± 0.4 and the “self-splicing fitness (ln)” value (37 °C) is -3.08 ± 0.38.

Turning to CGGCAGCAAUAUUACGAGAG, the “self-splicing fitness (ln)” value is, setting by setting: (30 °C) -3.21 ± 0.23; (37 °C) -1.44 ± 0.2.

In the case of GCUUAGCAAUAUUACGAGGG, the “self-splicing fitness (ln)” value reads like this: (30 °C) -1.83 ± 0.11; (37 °C) -1.36 ± 0.11.

For the sequence UGAGAGCAAUAUUACGCGCC, the “self-splicing fitness (ln)” value runs as follows: (30 °C) -1.44 ± 0.33; (37 °C) -1.09 ± 0.47.

Take UGCAAGCAAUAUUACGGGGU: the “self-splicing fitness (ln)” value by setting is: (30 °C) -3.13 ± 0.15; (37 °C) -2.75 ± 0.14.

With GUCGAGCAAUAUUACGUGGU, the “self-splicing fitness (ln)” value was -3.5 ± 0.19 (30 °C) and -2.8 ± 0.19 (37 °C).

Take UGAAAGCAAUAUUACGUAUC: the “self-splicing fitness (ln)” value was -3.86 ± 0.28 (30 °C) and -2.38 ± 0.25 (37 °C).

With UGCAAGCAAUAUUACGCGGA, the “self-splicing fitness (ln)” value runs as follows: (30 °C) -2.23 ± 0.12; (37 °C) -0.795 ± 0.12.

As for AUGUAGCAAUAUUACGGCCA, the “self-splicing fitness (ln)” value (30 °C) was -0.669 ± 0.21 and the “self-splicing fitness (ln)” value (37 °C) was -0.586 ± 0.22.

With GACUAGCAAUAUUACGUCGG, the “self-splicing fitness (ln)” value is, setting by setting: (30 °C) -3.55 ± 0.21; (37 °C) -3.32 ± 0.24.

Turning to AAGAAGCAAUAUUACGUUGG, the “self-splicing fitness (ln)” value reads like this: (30 °C) -3.25 ± 0.18; (37 °C) -2.71 ± 0.23.

As for AUCUAGCAAUAUUACGAACA, the “self-splicing fitness (ln)” value is -1.53 ± 0.14 (30 °C) and -0.645 ± 0.12 (37 °C).

UCAGAGCAAUAUUACGAAUA: the “self-splicing fitness (ln)” value by setting is: (30 °C) -2.84 ± 0.32; (37 °C) -2.14 ± 0.38.

Regarding AUGGAGCAAUAUUACGAGAA, the “self-splicing fitness (ln)” value (37 °C) is -1.43 ± 0.34.

As to UGGUAGCAAUAUUACGCAAA, the “self-splicing fitness (ln)” value was -2.06 ± 0.29 (30 °C) and -1.59 ± 0.17 (37 °C).

GUAGAGCAAUAUUACGUGAC: the “self-splicing fitness (ln)” value is -2.42 ± 0.16 (30 °C) and -1.31 ± 0.19 (37 °C).

As for AUUCAGCAAUAUUACGUAAU, the “self-splicing fitness (ln)” value was -0.328 ± 0.079 (30 °C) and 0.348 ± 0.11 (37 °C).

Consider UCUGAGCAAUAUUACGUAUC, for which the “self-splicing fitness (ln)” value is -3.62 ± 0.25 (30 °C) and -1.69 ± 0.25 (37 °C).

For the sequence ACGCAGCAAUAUUACGGGAC, the “self-splicing fitness (ln)” value (30 °C) is -3.2 ± 0.22 and the “self-splicing fitness (ln)” value (37 °C) is -1.84 ± 0.2.

Take ACAAAGCAAUAUUACGGCUC: the “self-splicing fitness (ln)” value (30 °C) is -0.452 ± 0.078 and the “self-splicing fitness (ln)” value (37 °C) is -0.217 ± 0.12.

With ACCAAGCAAUAUUACGCUGA, the “self-splicing fitness (ln)” value reads like this: (30 °C) -1.73 ± 0.1; (37 °C) -1.13 ± 0.11.

For the sequence GUGGAGCAAUAUUACGGGGU, the “self-splicing fitness (ln)” value is, setting by setting: (30 °C) -3.24 ± 0.44; (37 °C) -2.26 ± 0.42.

In the case of GCAGAGCAAUAUUACGUGCC, the “self-splicing fitness (ln)” value (30 °C) was -3.66 ± 0.3 and the “self-splicing fitness (ln)” value (37 °C) is -2.94 ± 0.3.

As to CCAUAGCAAUAUUACGAUAG, the “self-splicing fitness (ln)” value (30 °C) was -0.989 ± 0.06 and the “self-splicing fitness (ln)” value (37 °C) was -0.387 ± 0.076.

Take UGGGAGCAAUAUUACGUGAC: the “self-splicing fitness (ln)” value (37 °C) was -2.53 ± 0.44.

Regarding GUGUAGCAAUAUUACGAUCC, the “self-splicing fitness (ln)” value reads like this: (30 °C) -0.838 ± 0.21; (37 °C) -0.041 ± 0.46.

In the case of AGAUAGCAAUAUUACGUCCC, the “self-splicing fitness (ln)” value is -1.36 ± 0.2 (30 °C) and 0.133 ± 0.32 (37 °C).

ACCAAGCAAUAUUACGUGUU: the “self-splicing fitness (ln)” value by setting is: (30 °C) -3.99 ± 0.093; (37 °C) -1.54 ± 0.075.

For UCGGAGCAAUAUUACGUUAA, the “self-splicing fitness (ln)” value reads like this: (30 °C) -2.69 ± 0.31; (37 °C) -2.78 ± 0.32.

For the sequence UGGUAGCAAUAUUACGUUAU, the “self-splicing fitness (ln)” value is -3.29 ± 0.28 (30 °C) and -3.33 ± 0.31 (37 °C).

For CCAGAGCAAUAUUACGCGUU, the “self-splicing fitness (ln)” value is -4.06 ± 0.23 (30 °C) and -2.65 ± 0.18 (37 °C).

As to UACAAGCAAUAUUACGUGUU, the “self-splicing fitness (ln)” value (30 °C) is -2.85 ± 0.081 and the “self-splicing fitness (ln)” value (37 °C) was -1.58 ± 0.11.

On to GGCCAGCAAUAUUACGAUAG, for which the “self-splicing fitness (ln)” value was -3.68 ± 0.46 (30 °C) and -2.95 ± 0.23 (37 °C).

As to AGGCAGCAAUAUUACGCCGC, the “self-splicing fitness (ln)” value reads like this: (30 °C) -2.8 ± 0.18; (37 °C) -2.66 ± 0.29.

Turning to GAAUAGCAAUAUUACGGAAG, the “self-splicing fitness (ln)” value is -4.14 ± 0.39 (30 °C) and -2.1 ± 0.25 (37 °C).

Turning to UGAGAGCAAUAUUACGGGUC, the “self-splicing fitness (ln)” value (37 °C) is -1.33 ± 0.45.

As to CUCAAGCAAUAUUACGCAGA, the “self-splicing fitness (ln)” value reads like this: (30 °C) -3.06 ± 0.5; (37 °C) -2.41 ± 0.21.

Turning to AGUCAGCAAUAUUACGACCU, the “self-splicing fitness (ln)” value runs as follows: (30 °C) -0.358 ± 0.081; (37 °C) 0.103 ± 0.11.
